The source of these data is article PMC5828360, “Identification and characterization of highly versatile peptide-vectors that bind non-competitively to the low-density lipoprotein receptor for in vivo targeting and delivery of small molecules and protein cargos” (PLoS ONE, 2018).

The target of the assay is human LDLR, endogenous on HUVEC (human (endogenous in HUVEC)) (UniProt P01130). Nature of the assay: flow cytometry on cells; 1.10^10 phage on 1.10^6 HUVEC, 20 min on ice, without or with LDL at 0.5 mg/mL; anti-M13 (anti-PVIII) and anti-hLDLR antibodies; signal in zone Q2.
human LDLR, endogenous on HUVEC (human (endogenous in HUVEC)), sequence (P01130 22-860): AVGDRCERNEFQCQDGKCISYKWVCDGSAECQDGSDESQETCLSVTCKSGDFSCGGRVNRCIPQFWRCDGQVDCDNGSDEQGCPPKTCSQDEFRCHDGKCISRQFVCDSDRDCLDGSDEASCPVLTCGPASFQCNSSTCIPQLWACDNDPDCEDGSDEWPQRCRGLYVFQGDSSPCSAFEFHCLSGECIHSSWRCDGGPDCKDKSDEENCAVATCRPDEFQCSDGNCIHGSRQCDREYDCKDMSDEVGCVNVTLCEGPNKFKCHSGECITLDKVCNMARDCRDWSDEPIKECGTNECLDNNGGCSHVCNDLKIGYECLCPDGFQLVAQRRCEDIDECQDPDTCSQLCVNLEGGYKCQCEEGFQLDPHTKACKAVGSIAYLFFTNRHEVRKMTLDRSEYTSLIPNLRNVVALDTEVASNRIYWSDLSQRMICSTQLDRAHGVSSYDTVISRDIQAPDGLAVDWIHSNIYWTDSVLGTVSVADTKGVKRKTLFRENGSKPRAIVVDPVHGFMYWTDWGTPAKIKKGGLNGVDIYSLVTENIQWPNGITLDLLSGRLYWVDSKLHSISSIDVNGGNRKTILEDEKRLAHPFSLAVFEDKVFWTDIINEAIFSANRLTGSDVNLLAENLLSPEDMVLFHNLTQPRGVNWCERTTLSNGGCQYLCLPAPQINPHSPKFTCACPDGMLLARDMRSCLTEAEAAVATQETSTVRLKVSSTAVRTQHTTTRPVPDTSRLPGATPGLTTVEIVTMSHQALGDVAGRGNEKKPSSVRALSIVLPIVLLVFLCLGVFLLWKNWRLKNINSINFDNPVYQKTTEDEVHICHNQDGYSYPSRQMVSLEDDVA

Consider “low-density lipoprotein (LDL), P04114 28-4563”, for which the percent reduction of the VH549 phage signal (Q2) with LDL at 0.5 mg/mL came to 56%.
